Test: yeast display, Sf9 membrane polyspecificity reagent, FACS + sequencing; frameworks hold sequencing errors
Outline: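 Nanobodies from a synthetic yeast display library (Saccharomyces cerevisiae BJ5465), induced 36–48 hours with galactose, were stained 1 hour at 4 °C with 10% biotinylated, detergent-solubilized Sf9 membrane reagent, enriched on streptavidin microbeads, then FACS-sorted. Anti-HA (expression) and streptavidin (reagent binding) fluorescence set low and high (top ~1%) gates. Polyreactivity labels come from the gate of origin. Genes were colony-PCR amplified, MiSeq 2 × 250 sequenced and filtered by CDR length.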

Sequence	polyreactivity (PSR sort gate)
QVQLVESGGGLVQAGGSLRLSCAASGIIFTWYAMGWYRQAPGKERELVAAITSGNTYYADSVKGRFTISRDNAKNTVYLQMNSLKPEDTAVYYCNAVYSYTDEYDYWGQGTQVTVSS	high polyreactivity
QVQLVESGGGLVQAGGSLRLSCAASGIIFTYNAMGWSRQAPGKERELVAAISWRGGSTYYADSVKGRFTISRDNAKNTVYLQMNSLKPEDTAVYYCARYGTDHRLGYGYWGQGTQVTVSS	low polyreactivity
QVQLVESGGGLVQAGGSLRLSCAASGIIFTYNTMGWYRQAPGKERELVAAINYSGGSTYYADSVKGRFTISRDNAKNTVYLQMNSLKPEDTAVYYCAAPYRRKARGFQQSFDYWGQVTQVTVSS	high polyreactivity
QVQLVESGGGLVQAGGSLRLSCAASGIIFTYYAMGSYRQAPGKERELVAAISSRGDSTYYADSVKGRCTISRDNAKNTVSLQLNSLKTEDTAVYYCNRYLSRPLRAMYYWGIGTQVTVSS	high polyreactivity
QVQLVESGGGLVQAGGSLRLSCAASGIIFTYYAMGWYRQAPGKERELVAAISYRGGSTNYADSVKGRFTISRDNAKNTVYLQMNSLKPEDTAVYYCAAKSYWKRFRVLYDYWGQGTQVTVSS	high polyreactivity
QVQLVESGGGLVQAGGSLRLSCAASGIIFTYYAMGWYRQAPGKERELVAAITSSAGSTYYADSVKGRFTISRDNAKNTVYLQMNSLKPVDTAVYYCAAYSVYYYQGDDYWGQGTQVTVSS	high polyreactivity
QVQLVESGGGLVQAGGSLRLSCAASGIIFTYYAMGWYRQAPGKERELVADIDWSGDGTYYADSVKGRFTISRDNAKNTVYLQMNSLKPEDTAVYYCAAEGTETYYVFYDQPEITLYDYWGQGTQVTVSS	low polyreactivity
QVQLVESGGGLVQAGGSLRLSCAASGIIFVAYARGWYRQAPGKERELVAAITWGGGRTYYADSVKGRFTISRDNAKNTVYLQMNSLKPEDTAVYYCAAVVWYDPRATYVYWGQGTQVTVSS	low polyreactivity
QVQLVESGGGLVQAGGSLRLSCAASGIIFVINAMGWYRQAPGKERELVATITGSGTTNYADSVKGRFTISRDNAKNTVYLQMNSLKPEDTAVYYCARDDTEYARTGAYDYWGQGTQVTVSS	low polyreactivity
QVQLVESGGGLVQAGGSLRLSCAASGIIFVSYMGWYRQAPGKERELVAAIRWSGGRTYYADAVKGRFTISRDNAKNTVYLQMNSLKPEDTAVYYCNKRVYYSRDVTSRVGRYDFWGQGTQVTVSS	high polyreactivity
QVQLVESGGGLVQAGGSLRLSCAASGIIFWAYALGWYRQAPGKERELVAVISRGGSTNYADSVKGPFTISRDNAKNTVYLQMNSLKPEDTAVYYCAARYGWGQGTQVTVSS	high polyreactivity
QVQLVESGGGLVQAGGSLRLSCAASGIIFWRHVMGWYRQAPGKERELVATISTRGGNTYYADSVKGRFTISRDNAKNTVYLQMNSVKPEDTAVYYCAAGKNGYTYSRSYSYGYWGQGTQVTVSS	high polyreactivity
QVQLVESGGGLVQAGGSLRLSCAASGIIFWRYAMGWYRQAPGKERELVAAIRYRAGSTYYADSVKGRFTISRDNAKNTVYLQLNSLKPEDTAVYYCAAGWWTSPDRRGGDYWGQGTQVTVSS	high polyreactivity
QVQLVESGGGLVQAGGSLRLSCAASGIIFWVNAMGWYRQAHGKETELVAAITISGVSTYYADSVKGRFTISRDNAKNTVYLQMNSLKPEDTAVYYCAKDPTFSSSFAVSLGFDSWGQGTQVTVSS	low polyreactivity
QVQLVESGGGLVQAGGSLRLSCAASGIIFWWYAMGWYRQAPGKEMELVAAISGTGGSTYYADSVKGRFTISRDNAKNTVYLQMNSLKPEDTAFYYCAARGKSSSYYDYDYWGQGTQVTVSS	low polyreactivity
QVQLVESGGGLVQAGGSLRLSCAASGIIFWYYAMGWYRPAPGKERELVAAISSGGGTNYADSVKGRFTISRDNAKNTVYLQMNSLKPEDTAVYYCAVASGPELDYWGQGTQVTVSS	low polyreactivity
QVQLVESGGGLVQAGGSLRLSCAASGIIFWYYAMGWYRQAPGIERELVAAISQSGGRTYYADSVKGRFTISRDNAKKTVYLQMNSLKPEDTAVYYCAAEPYTGYGYWGQGTQVTVSS	high polyreactivity
QVQLVESGGGLVQAGGSLRLSCAASGIIFWYYAMGWYRQAPGKERELVAAISGSGGRTYYADSVKGRFTISRDNAKNTVYLQMNSLKPEDTAVYYCNALRAAFYHRARELDYWGQGTQVTVSS	high polyreactivity
QVQLVESGGGLVQAGGSLRLSCAASGIIFYAYAMGWYRQAPGKERELVARISRGGSTNYADSVKGRFTISRDNAKNTFYLQMNSLKPEDTAVYYCAAYYAYLRYGGLYEYWGQGTQVTVSS	high polyreactivity
QVQLVESGGGLVQAGGSLRLSCAASGIIFYDYAMGWYRQAPGKERELVAAIDTGDSTYYADSVKGRFTISRDNAKKTVDLQMNSLKPEDTAVYYCAADYIFYTYIFYWGQGTQVTVSS	high polyreactivity
QVQLVESGGGLVQAGGSLRLSCAASGIIFYDYAMGWYRQAPGKERELVAAISRSGGSTYYADSVKGRFTISRDNATNTVYLQMNSLKPEDTAVYYCNADEVVWGYNYWGQGTQVTVSS	low polyreactivity
QVQLVESGGGLVQAGGSLRLSCAASGIIFYDYAMGWYRQAPGKERELVAAITSSGGSTYYADSVKGRFTISRDNAKNTVYLQMNSLKPEDTAVYYCAARTRSYWSTTYYYWGQGTQVTVSS	high polyreactivity

Sequence	polyreactivity (PSR sort gate)
QVQLVESGGGLVQAGGSLRLSCAASGIIFYDYVMGWYRQAPGKERELVTAISSNGGSTYYADSVKGRFTISRDNAKNTVYLQMNRLKPEDTAVYYCAAEGKSYPWPWYFDYWGQGTQVTVSS	high polyreactivity
QVQLVESGGGLVQAGGSLRLSCAASGIIFYEYAMGWYRQAPGKERELVATITSGGSTNYADSVKGRFTISRDNAKNTVYLQMNSLKPEDTAVYYCNADWWWGYGYWGQGTQVTVSS	low polyreactivity
QVQLVESGGGLVQAGGSLRLSCAASGIIFYEYAMGWYRQAPGKERELVAVITSGGTTNYADSVKGRFTISRDNAKNTVYLQMNSLKPEDTAVYYCAADVYWEFSPEYDYWGQGTQVTVSS	low polyreactivity
QVQLVESGGGLVQAGGSLRLSCAASGIIFYEYVMGWYRQAPGKERELVAAISRSGGSTYYADSVKGRFTISRDNAKNTVYLQMNSLKPEDTAVYYCAVDAYRYWWTTYVSDFDYWGQGTQVTVSS	high polyreactivity
QVQLVESGGGLVQAGGSLRLSCAASGIIFYFYTMGWYRQAPGKERELVAAISSSGGRTFYADSVKGRFTISRDNAKNTVYLQMNSLKPEDTAVYYCAAAHTREYYWGQGTQVTVSS	high polyreactivity
QVQLVESGGGLVQAGGSLRLSCAASGIIFYGKAMGWYRQAPGKERELVAAITWSGGSTYYADSVKGRFTISRDNAKNTVYLQMNRLKPEDTAVYYCAALSGAHEHFVEYDYWGQGTQVTVSS	low polyreactivity
QVQLVESGGGLVQAGGSLRLSCAASGIIFYGNVMGWYRQAPGKERELVAGINSSGASTYYADSVKGRFTISRDNAKNTVYLQMNSLKPEDTAVYYCAARGPRVRLNSYYAGRYDYWGQGTQVTVSS	low polyreactivity
QVQLVESGGGLVQAGGSLRLSCAASGIIFYGYAMGWYRQAPGKERELVAAIRWRGGSTYYADSVKGRFTISRDNAKNTVYLQMNSLKPADTAVYFCAADQTRYTSVFSSTRYDYWGQGTQVTVSS	low polyreactivity
QVQLVESGGGLVQAGGSLRLSCAASGIIFYGYVMGWYRQAPGKERELVATITSSGGSTYYADSVKGRFTISRDNAKNTVYLQMNSLKPEDTGVYYCAADYYYGAWVRHDYWGQGTQVTLSS	low polyreactivity
QVQLVESGGGLVQAGGSLRLSCAASGIIFYHNAMGWYRQAPGKERELVASITEIGGSTYYADSVKGRFTISRDNAKNTVYLQMNSLKPEDTAVYYCAAGTLTSFSRYDYWGQGTQVTVSS	low polyreactivity
QVQLVESGGGLVQAGGSLRLSCAASGIIFYLNAMGWYRLAPGKERELVAAISSSDGTTYYADSVKGRFTISRDNAKNTVYLQMNSLKPEDTAGYYCAAGQDWGYLDYDWVSYLYDYWGQGTQVTVSS	low polyreactivity
QVQLVESGGGLVQAGGSLRLSCAASGIIFYLYAMGWYRQAPGKERELVAAITLSGSTTYYADSVKGRFTISRDNAKNTVYLQMNSLKPEDTAVYYCNADTPVRSDYWGQGTQVTVSS	low polyreactivity
QVQLVESGGGLVQAGGSLRLSCAASGIIFYLYTKGWYRQAPGKERELVAAITRGGSTYYADSVKGRFTISRDNAKKTVYLQMNSLKPEDTAVYYCAAKHGPGYRRWYDYWGQGTQVTVSS	high polyreactivity
QVQLVESGGGLVQAGGSLRLSCAASGIIFYRYAMGWYRQAPGKERELVAAISTRGGSTYYADSVKGRFTISRDNAKYTVYLHMNSLKPEDTAVYYCAAEWLRYLHDYWGQGTQVTVSS	high polyreactivity
QVQLVESGGGLVQAGGSLRLSCAASGIIFYRYAMGWYRQAPGKERELVAAITWRGGSPYYADSVKGRFTISRDNAKNTVYLQMNSLKPEDTAVYYCAAESYWTATYTFDYWGQGTQVTVSS	high polyreactivity
QVQLVESGGGLVQAGGSLRLSCAASGIIFYVNAMGWYRQAPGKERDLVAAITFGGDSTYYADSVKGRFTISRDNAMNTVSVQMNSLKPEDTAVYYCATDGDPAYPEMEYLGQGTQVTVSS	low polyreactivity
QVQLVESGGGLVQAGGSLRLSCAASGIIFYVNAMGWYRQAPGKERELVAVISRRGGSTNYADSVKGRFTISRDNAKNTVYLQMNSLKPEDTAVYYCAAGYRTAYRGSSYYYWGQGTQVTVSS	high polyreactivity
QVQLVESGGGLVQAGGSLRLSCAASGIIFYYNALGWYRQAPGKERELVAAIDDRGDSTYYADSVKGRFTISRDNAKNTVYLQMNSLKPEDTAVYYCAADRYVQLLGYFFEYDYWGQGTQVTVSS	low polyreactivity
QVQLVESGGGLVQAGGSLRLSCAASGIIFYYYAMGWYRQPPGKERELVAAISWSGDGTYYADSVKGRFTISRDNPKNTVYLQMNSLKPEDTAVYYCAALNDGFSGYDYLDEYTDYGYWGQGTQVTVSS	low polyreactivity
QVQLVESGGGLVQAGGSLRLSCAASGIIIGNNAMGWYRQAPGKERELVAPISRRGGSTYYADSVKGRFTISRDNAKNTVYLQMNSLKPEYTAVYYCAADIYRYNSYDYWGQGTQVTVSS	low polyreactivity
QVQLVESGGGLVQAGGSLRLSCAASGIIIGYYAMGWYRQAPGKERELVAAISSIGGSTYYADSVKGRFTISRDNAKNTVYLQMNSLKPEDTAVYYCAAKYYGRYYRYLGSSFDYWGQGTQVTVSS	high polyreactivity
